Positions count from the first letter of the chain named.
Experiments:
B. thetaiotaomicron = assay: Polymyxin B susceptibility (MIC, E-test strips); type: cell-based, Bacteroides thetaiotaomicron; conditions: no TetR
Experimental: Minimum inhibitory concentrations (MICs) were determined on solid medium using E-test strips (Biomerieux) as previously described (Cullen, T. W. et al., 2015, Science, 347:170-175), except that cultures were initially grown for 18 hours in liquid medium. Cultures were adjusted to OD600˜1.0 and 100 μL of cell suspension was then spread onto BHI-blood agar plates. Surface liquid was allowed to dry in a fume hood for 10 minutes, followed by application of the E-test strip to the agar surface.

[1] = system: NanoLuc luciferase reporter in B. thetaiotaomicron; assay: NanoLuc luciferase assay from in vitro samples (promoter activity); type: cell-based, Bacteroides thetaiotaomicron
Experimental: The NanoLuc luciferase assay was performed as described (Mimee, M. et al., 2015, Cell Syst., 1:62-71), with the following modifications. All strains were first grown for 18 hours in TYG medium or Gut Microbiota Medium and diluted 250-fold into fresh medium in appropriate conditions (with or without aTC). Cultures were grown to mid exponential phase (OD600 0.3-0.4) and colony forming units (CFU) were measured by dilution plating. 500 μL of the culture was centrifuged at 21,130×g for 3 minutes, resuspended in 50 μL 1× BugBuster (Novagen) in 1×PBS and lysed by one cycle of freeze-thaw and nutation at 26° C. for 10 minutes. Lysates were cleared of cellular debris by centrifugation at 21,130×g for 10 minutes at 4° C. 10 μL of the supernatant was mixed with an equal volume of NanoLuc Reaction Buffer using the Nano-Glo Luciferase Assay System (Promega) and incubated for 5 minutes at 26° C. to induce luminescence production. Relative Light Units (RLU) were measured using a fluorescence plate reader (BioTek Synergy H1) with an integration time of 1 second at a gain setting of 100. Luminescence values were normalized to colony forming units (CFUs) because experimental conditions (e.g., growth medium, antibiotics, aTC, heterologous gene expression) affect the correlation between CFUs and OD600 in Bacteroides.

B1: P1TP: Synthetic aTC-inducible promoter (proximal tetO2) + RBS GH023 (nucleic acid)
DNA: TTTTGCACCCGCTTTCCAAGAGAAGAAAGCCTTGTTAAATTGACTTAGTGTAAAAGCGCAGTACTGCTTGACCATAAGAACAAAAAAACTTCCGATAAAGTTTGGAAGATAAAGCTAAAAGTTCTTATCTTTGCAGTCTCCCTATCAGTGATAGAGACGAAATAAAGACATATAAAAGAAAAGACACCATG
modifications: P1TPSynthetic aTC-inducible promoter (proximal tetO2)+RBS GH023
How did the “PMB resistance of B. thetaiotaomicron lpxF mutant expressing lpxF from the promoter” value (“PMB resistance” for short) (B. thetaiotaomicron) turn out when B1 was run?
The value was “increases PMB resistance to wildtype levels”.

B2: P2: Constitutive promoter of Bacteroides 16S rDNA (nucleic acid)
DNA: AAGAAAAGGCGTTTTGTTTTTCTTCTTTACCTTCTTTCCCTTTCGCTAAGAGAGTCTGAGAAACGATAGAAAAAGAAAAGCGAAAAAACTTCCGAAAACATTTGGTAGTTAAAATAAAACCTCTTACCTTTGCACCC
modifications: P2 Constitutive promoter (last nucleotide is +1 TSS)
notes: Constitutive promoter of Bacteroides 16S rDNA
Which “PMB resistance” value (B. thetaiotaomicron) does the source give for B2 here?
The value was “increases PMB resistance to wildtype levels”.

B3: P1TD: Synthetic aTC-inducible promoter (distal tetO2) + RBS GH023 (nucleic acid)
DNA: TTTGCACCCGCTTTCCAAGAGAAGAAAGCCTTGTTAAATTGACTTAGTGTAAAAGCGCAGTACTGCTTGACCATAAGAACAAAAAAATCTCTATCACTGATAGGGATAAAGTTTGGAAGATAAAGCTAAAAGTTCTTATCTTTGCAGTCCGAAATAAAGACATATAAAAGAAAAGACACCATG
modifications: P1TD Synthetic aTC-inducible promoter (distal tetO2)+RBS GH023
Which “PMB resistance” value (B. thetaiotaomicron) does the source give for B3 here?
Its value is “increases PMB resistance to wildtype levels”.

B4: P1TDP^B40: Synthetic aTC-inducible promoter (distal and proximal tetO2) + RBS B40 (nucleic acid)
DNA: TTTGCACCCGCTTTCCAAGAGAAGAAAGCCTTGTTAAATTGACTTAGTGTAAAAGCGCAGTACTGCTTGACCATAAGAACAAAAAAATCTCTATCACTGATAGGGATAAAGTTTGGAAGATAAAGCTAAAAGTTCTTATCTTTGCAGTCTCCCTATCAGTGATAGAGACGCATTTTAAAATAAAATAAATCATGTAGTTAATTAAACGAATCCATG
modifications: P1TDP-B40 Synthetic aTC-inducible promoter (distal and promixal tetO2)+RBS B40
With B4 as the molecule, how does the “increase of dynamic response to aTC over P1TDP^GH023” value ([1]; Bt::tetR) read?
Its value is 3.3 fold.

What about the “reporter expression relative to background in uninduced state” value ([1]; Bt::tetR (TetR present), no aTC) of the same molecule?
The value was 1.4 fold.

And the “induction of reporter activity (luminescence) in response to aTC” value ([1]; Bt::tetR, aTC 100 ng/mL)?
Its value is 9,100 fold.

B5: P1TDP^A21: Synthetic aTC-inducible promoter (distal and proximal tetO2) + RBS A21 (nucleic acid)
DNA: B4 DNA with C191T, G194T, G197T, T198G, T199A, A200T
modifications: P1TDP-A21 Synthetic aTC-inducible promoter (distal and promixal tetO2)+RBS A21
With B5 as the molecule, how does the “luminescence higher than the strongest native promoter tested” value ([1]; ON state, 18 native B. thetaiotaomicron promoters) read?
Its value is 14 fold.

B6: P1TDP^C56: Synthetic aTC-inducible promoter (distal and proximal tetO2) + RBS C56 (nucleic acid)
DNA: B4 DNA with C191T, G194T, T195C, A196G, G197T, A201G
modifications: P1TDP-C56 Synthetic aTC-inducible promoter (distal and promixal tetO2)+RBS C56
How did the “luminescence lower than the weakest native promoter tested” value ([1]; OFF state, 18 native B. thetaiotaomicron promoters) turn out when B6 was run?
Its value is 6.7 fold.

— patent US11549115B2, “Compositions and methods for regulated gene expression” (YALE UNIVERSITY, priority 2017, dated 2023)
